Earlier results, collected in patent US11807856B2, “Recombinant Pichia pastoris strain and method for producing active pediocin PA-1” (VIET NAM NATIONAL UNIVERSITY HO CHI MINH CITY, priority 2019, dated 2023).
Read-outs that look alike come from different tables or passages of the source. Ends that are not written are not given here.

Legend:
[1] = for activity after heat treatment: 100° C. for 60 minutes (1 hour); for antimicrobial activities after heat treatment: 121° C.
[2] = pH 2-8

## native pediocin PA-1: class IIa bacteriocin, 4.6 kDa peptide with 44 amino acids, produced by Pediococcus acidilactici PAC1.0 (KYYGNGVTCGKHSCSVDWGKATTCIINNGAMAWATGGHQGNHKC; ends and bridges not checked; cysteine pairing not given here; UniProt P29430 19-62, looked up)
[1]; listed as prior-art pediocin PA-1
  activity after heat treatment: stable
[1]; produced by Pediococcus acidilactici PAC1.0
  activity after heat treatment: remain its full activities
[1]; 20 minutes treatment, listed as prior-art pediocin PA-1
  antimicrobial activities after heat treatment: lost all activity
[1]; 20 minutes treatment, produced by Pediococcus acidilactici PAC1.0
  antimicrobial activities after heat treatment: completely disappeared
[1]; after 15 minutes
  antimicrobial activities after heat treatment: gradually reduced
[2]
  time stable at pH levels of 2-8: at least 2 hours
